Data from article PMC4293345.
Read-outs that look alike come from different tables or passages of the source.

How the values were obtained:
[1] = molecular target: MBP-tagged NCS-1 (neuronal calcium sensor-1) (UniProt P62166); assay: pull-down
[2] = molecular target: MBP-tagged NCS-1 (neuronal calcium sensor-1) (UniProt P62166); assay: pull-down; remark: listed apart in the source

MBP-tagged NCS-1 (neuronal calcium sensor-1), sequence (P62166 whole entry): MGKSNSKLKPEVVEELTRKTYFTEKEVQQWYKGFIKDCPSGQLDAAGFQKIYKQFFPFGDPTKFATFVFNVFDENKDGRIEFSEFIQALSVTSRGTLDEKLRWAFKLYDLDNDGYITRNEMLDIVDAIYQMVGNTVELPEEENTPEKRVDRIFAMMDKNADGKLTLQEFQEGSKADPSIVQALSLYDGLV

In the case of “GST-tagged IM-AA mutant IQ domain of CaV2.1 (from UniProt P54282 1848-1964) (domain or fragment)”, the relative binding (ratio of IMAA-GST to NCS-1-MBP) [1] is reported as 0.29 and the relative binding (ratio of IMAA-GST to NCS-1-MBP) [2] is reported as 0.24.
